The Human Domainome abundance scans (Beltran et al. 2025)
± gives the uncertainty stated by the source.

B1: Glucocorticoid receptor, residues 419 to 494; numbered along this chain, P04150 (parent)
chain: KLCLVCSDEASGCHYGVLTCGSCKVFFKRAVEGQHNYLCAGRNDCIIDKIRRKNCPACRYRKCLQAGMNLEARKTK
B2: Ventral anterior homeobox 1, residues 102 to 157; numbered along this chain, Q5SQQ9 (parent)
chain: RTRTSFTAEQLYRLEMEFQRCQYVVGRERTELARQLNLSETQVKVWFQNRRTKQKK

Variants of: B1
Test: abundance fitness (aPCA) (normalised: wild type 0, dead -1); higher = more abundant; growth selection in yeast, the domain comes from the species named
Conditions: Homo sapiens

Variant | abundance fitness
G21P | -0.008 ± 0.056
G21I | -0.088 ± 0.099
G21R | -0.086 ± 0.033
G21S | -0.023 ± 0.04
G21L | -0.037 ± 0.037
L64T | -0.074 ± 0.04
L64W | -0.031 ± 0.038
L64P | -0.682 ± 0.13
L64G | -0.273 ± 0.036
L64N | -0.083 ± 0.082
T19D | -0.909 ± 0.31
T19R | -0.929 ± 0.099
K74V | -0.008 ± 0.044
K74W | -0.017 ± 0.05
K74S | -0.047 ± 0.046
K74L | 0.077 ± 0.038
K74I | 0.027 ± 0.08
K74P | -0.049 ± 0.056
P56E | 0.015 ± 0.037
N43C | -0.193 ± 0.059
N43K | 0.013 ± 0.041
N43W | -0.056 ± 0.039
Q65N | -0.071 ± 0.073

Variant | abundance fitness
D48G | -0.334 ± 0.034
D48S | -0.142 ± 0.04
D48V | -0.596 ± 0.059
A72K | 0.049 ± 0.045
A72M | 0.005 ± 0.053
A72F | -0.285 ± 0.081
A72H | -0.044 ± 0.061
A72I | 0.002 ± 0.062
A72Q | 0.008 ± 0.043
A66Q | -0.037 ± 0.059
A66R | -0.179 ± 0.036
V17Q | -0.194 ± 0.047
V17L | -0.16 ± 0.038
A40F | -0.088 ± 0.17
A40G | -0.04 ± 0.031
A40E | -0.048 ± 0.039
F27E | -1.01 ± 0.16
F27G | -0.929 ± 0.089
F27W | -0.071 ± 0.038
F27I | -0.26 ± 0.08
F27M | -0.144 ± 0.052
F27V | -0.386 ± 0.041
C45F | -0.649 ± 0.21

Variant | abundance fitness
C45R | -0.778 ± 0.058
E71L | -0.104 ± 0.038
E71A | -0.135 ± 0.041
E71K | -0.077 ± 0.056
L4H | -0.141 ± 0.053
L4S | -0.026 ± 0.039
L4D | 0.035 ± 0.07
L4F | -0.024 ± 0.065
D8S | -0.034 ± 0.038
D8A | 0.037 ± 0.039
D8K | -0.27 ± 0.069
R61D | 0.016 ± 0.064
R61Y | -0.089 ± 0.11
R61C | -0.112 ± 0.058
R61P | -0.854 ± 0.19
R61I | -0.083 ± 0.085
N36E | 0.002 ± 0.042
N36K | 0.038 ± 0.049
N36I | -0.054 ± 0.078
N36D | -0.065 ± 0.092
I47R | -0.406 ± 0.035
I47W | -0.542 ± 0.058
I47P | -0.442 ± 0.063

Variant | abundance fitness
I47A | -0.368 ± 0.043
K24N | -0.028 ± 0.061
K24M | -0.087 ± 0.077
R42M | -0.024 ± 0.049
R42L | 0.012 ± 0.034
K1H | -0.304 ± 0.12
K1N | -0.12 ± 0.088
K1R | -0.141 ± 0.043
K1C | -0.14 ± 0.1
K1S | -0.062 ± 0.063
K1D | -0.002 ± 0.083
S7Q | 0.029 ± 0.046
S7N | -0.111 ± 0.065
S7I | -0.725 ± 0.16
S7K | 0.032 ± 0.046
S7H | 0.021 ± 0.09
S7L | -0.017 ± 0.037
Q34P | -0.114 ± 0.051
Q34W | -0.136 ± 0.046
Q34T | -0.064 ± 0.045

Variants of: B2
Test: as above
Conditions: Homo sapiens

Variant | abundance fitness
R1G | -0.002 ± 0.19
R1M | 0.083 ± 0.39
R1S | -0.042 ± 0.2
R1E | -0.025 ± 0.46
R1I | 0.024 ± 0.34
R1T | -0.465 ± 0.37
R1C | 0.058 ± 0.18
R3L | 0.156 ± 0.084
R3Y | 0.071 ± 0.1
R3K | 0.168 ± 0.13
R3I | 0.251 ± 0.092
R3F | 0.209 ± 0.098
R3C | 0.211 ± 0.11
R3A | 0.002 ± 0.11
R3M | 0.279 ± 0.16
R3S | 0.266 ± 0.084
R3D | 0.326 ± 0.12
R3W | 0.054 ± 0.16
R3H | 0.229 ± 0.098
R3Q | 0.084 ± 0.14
R3V | 0.096 ± 0.094
R3N | 0.268 ± 0.098
R3G | 0.223 ± 0.095
R3P | 0.164 ± 0.091
T2C | -1.01 ± 0.4
T2G | 0.013 ± 0.14

Variant | abundance fitness
T2F | -0.3 ± 0.24
T2N | 0.271 ± 0.35
T2M | -0.128 ± 0.26
T2E | -0.012 ± 0.3
T2W | -0.566 ± 0.24
T2L | -0.406 ± 0.22
T2P | -0.098 ± 0.24
T2H | -0.38 ± 0.24
T2Y | -0.335 ± 0.26
T2S | -0.074 ± 0.16
T2R | -0.166 ± 0.13
T2D | -0.034 ± 0.19
T2Q | 0.135 ± 0.28
T2K | -0.202 ± 0.19
S5Y | -0.013 ± 0.22
S5K | -0.747 ± 0.2
S5G | -0.002 ± 0.092
S5D | 0.262 ± 0.14
S5E | 0.326 ± 0.14
S5Q | 0.028 ± 0.17
S5W | -0.189 ± 0.14
S5R | -0.597 ± 0.12
S5M | 0.08 ± 0.15
S5H | -0.224 ± 0.28
S5I | -0.177 ± 0.19
S5C | -0.225 ± 0.16

Variant | abundance fitness
S5L | -0.179 ± 0.15
T4D | -0.14 ± 0.2
T4M | 0.107 ± 0.23
T4G | -0.269 ± 0.099
T4L | 0.205 ± 0.13
T4H | -0.49 ± 0.28
T4S | -0.058 ± 0.13
T4F | -0.347 ± 0.45
T4R | -0.35 ± 0.11
T4V | -0.092 ± 0.12
T4Q | -0.11 ± 0.2
T4I | -0.193 ± 0.23
T4P | -0.074 ± 0.24
T4A | -0.188 ± 0.17
T4C | -0.165 ± 0.18
T4K | -0.079 ± 0.19
T4W | -0.095 ± 0.14
T4N | 0.033 ± 0.23
T4E | 0.169 ± 0.15
F6C | -0.536 ± 0.26
F6D | -0.445 ± 0.31
F6G | -0.427 ± 0.1
F6E | -0.559 ± 0.44
F6I | -0.089 ± 0.27
F6H | -0.283 ± 0.25
F6A | -0.616 ± 0.22
